Laboratory results taken from paper PMC2995291.
Like-named read-outs stand apart in the source and are kept apart here.

Legend:
[1] = target: human ubiquitin with noncleavable N-terminal (His)6 tag (human) (UniProt P0CG48); assay: ITC
[2] = target: human ubiquitin with noncleavable N-terminal (His)6 tag (human) (UniProt P0CG48); assay: ITC; remark: listed apart in the source

Row | Kd [1] [µM] | Kd [2] [µM] | dH (kcal · mol^−1) [2] | stoichiometry N [2] | Substance
1 | 23 | – | – | – | human Polι UBM2 (residues 674–715) (domain or fragment)
2 | – | 172 | – | – | human Polι UBM2 P692A (residues 674–715) (domain or fragment)
3 | 23.6 | 23.8 | 4.5 | 1.01 | human Polι UBM2 (residues 679–707) (domain or fragment)
